Results on 12 molecules are retold here after patent publication US20210301005A1 (Genentech, published 2021).

In assay [1] the target is human TGFβ1, mature receptor-binding domain (human, UniProt P01137 279-390). Description: cell-based or functional assay.
The target in assay [2] is T1, human TGFβ2, mature receptor-binding domain (human, UniProt P09858 303-414 (pig entry), The mature TGFβ2 is a disulfide-linked homodimer of this 112-residue chain. The 4A11 epitope spans both monomers (p-1207).).
T1 sequence: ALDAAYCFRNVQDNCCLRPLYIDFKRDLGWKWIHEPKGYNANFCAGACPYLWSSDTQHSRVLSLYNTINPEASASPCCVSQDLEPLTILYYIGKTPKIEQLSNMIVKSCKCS
Nature of the assay: cell-based or functional assay.

Assay [3] has as its target T2, human TGFβ3, mature dimeric form (human, UniProt P10600 301-412).
T2 sequence: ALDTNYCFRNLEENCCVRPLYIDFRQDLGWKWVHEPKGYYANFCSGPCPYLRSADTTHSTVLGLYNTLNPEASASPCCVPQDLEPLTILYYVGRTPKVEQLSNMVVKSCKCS
Nature of the assay: cell-based or functional assay.

Assay [4] deals with T1, human TGFβ2, mature receptor-binding …. Description: BIAcore T200. As to the method:
(§1) For binding affinity determinations of all humanized 2A10 antibodies, Surface Plasmon Resonance (SPR) measurement with a BIAcore™-T200 instrument was used. Briefly, series S CM5 biosensor chip with protein A was first applied to capture each humanized 2A10 variant to achieve approximately 100 response units (RU) on each flow cell, following by injection of 3-fold serial dilutions of human TGFβ1, TGFβ2 or TGFβ3 (0.02 nM to 5 nM) in HBS-EP buffer (0.01M HEPES pH 7.4, 0.15M NaCl, 3 mM EDTA and 0.05% v/v surfactant P20) at 25° C. with a flow rate of 50 μl/min for kinetics measurement. Association rates (ko.) and dissociation rates (koff) were calculated using a simple one-to-one Langmuir binding model (BIAcore T200 evaluation software version 2.0) to determine the equilibrium dissociation constant (KD), which was calculated as the ratio koff/kₒₙ.
(§2) Binding affinity determinations of all humanized 4A11 antibodies were performed using SPR measurement with a BIAcore™-T200 instrument, as described above in Example 6 ([…]).
For orientation: Surface plasmon resonance follows binding to a sensor surface in real time, without labels.

The target of assay [5] is T2, human TGFβ3, mature dimeric form. Nature of the assay: BIAcore T200. As to the method: as §1, §2
Assay [6] deals with T1, human TGFβ2, mature receptor-binding …. Nature of the assay: cell-based or functional assay. This is another data set of the same source.

Chain of human TGFβ1, mature receptor-binding domain (P01137 279-390 limits assumed): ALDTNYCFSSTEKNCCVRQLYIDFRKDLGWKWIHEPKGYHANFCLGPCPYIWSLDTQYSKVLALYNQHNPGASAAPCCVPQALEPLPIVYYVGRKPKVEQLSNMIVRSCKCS

B1: h4A11.v7.8 (antibody, human IgG1, kappa, N297G)
heavy: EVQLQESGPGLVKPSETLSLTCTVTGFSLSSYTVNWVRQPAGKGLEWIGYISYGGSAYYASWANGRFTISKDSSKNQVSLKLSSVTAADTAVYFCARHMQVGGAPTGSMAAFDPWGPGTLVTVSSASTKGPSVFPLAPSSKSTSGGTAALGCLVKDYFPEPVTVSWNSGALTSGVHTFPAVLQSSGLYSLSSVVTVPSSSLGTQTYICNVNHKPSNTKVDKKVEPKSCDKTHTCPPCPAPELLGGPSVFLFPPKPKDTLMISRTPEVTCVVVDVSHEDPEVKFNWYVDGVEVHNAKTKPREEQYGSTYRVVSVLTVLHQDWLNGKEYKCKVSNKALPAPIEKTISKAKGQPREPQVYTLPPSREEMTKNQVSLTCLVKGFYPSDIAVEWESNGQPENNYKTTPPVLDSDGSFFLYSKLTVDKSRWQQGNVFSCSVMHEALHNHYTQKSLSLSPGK
light: EAVLTQSPGTLSLSPGERATLSCQSSQSVYNNNYLSWFQQKPGQPPRLLIYGASTLTSGVPDRFSGSGSGTDFTLTISRLEPEDFAVYYCAGGYSGSSDKYAFGGGTKVEIKRTVAAPSVFIFPPSDEQLKSGTASVVCLLNNFYPREAKVQWKVDNALQSGNSQESVTEQDSKDSTYSLSSTLTLSKADYEKHKVYACEVTHQGLSSPVTKSFNRGEC
B1: the “HEKBlue TGFβ blocking IC50” value is > 200 nM in assay [1], 0.06 nM in assay [2] and 0.03 nM in assay [3]. Also, the Kd (commonly the free concentration of one partner at which half of the binding sites on the other are occupied at equilibrium, for simple one-to-one binding) in assay [4] turned out to be 0.0045 nM; in assay [5] it was 0.0053 nM.

B2: h4A11.v7.3 (antibody, human IgG1, kappa, N297G)
heavy: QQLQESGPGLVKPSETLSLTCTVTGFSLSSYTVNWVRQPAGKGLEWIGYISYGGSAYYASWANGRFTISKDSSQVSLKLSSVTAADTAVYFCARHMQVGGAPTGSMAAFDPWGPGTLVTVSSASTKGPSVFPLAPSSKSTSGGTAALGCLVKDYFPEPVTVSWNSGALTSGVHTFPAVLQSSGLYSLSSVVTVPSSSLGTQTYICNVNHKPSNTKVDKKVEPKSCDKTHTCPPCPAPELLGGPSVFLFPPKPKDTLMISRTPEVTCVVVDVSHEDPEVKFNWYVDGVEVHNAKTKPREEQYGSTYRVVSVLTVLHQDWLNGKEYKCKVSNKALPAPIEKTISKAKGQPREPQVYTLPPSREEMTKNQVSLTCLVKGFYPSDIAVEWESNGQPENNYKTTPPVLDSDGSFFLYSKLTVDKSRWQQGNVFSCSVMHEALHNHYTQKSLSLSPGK
light: EAVLTQSPGTLSLSPGERATLSCQSSQSVYNNNYLSWFQQKPGQPPRLLIYGASTLTSGVPDRFSGSGSGTDFTLTISRLEPEDFAVYYCAGGYSGSSDKYAFGGGTKVEIKRTVAAPSVFIFPPSDEQLKSGTASVVCLLNNFYPREAKVQWKVDNALQSGNSQESVTEQDSKDSTYSLSSTLTLSKADYEKHKVYACEVTHQGLSSPVTKSFNRGEC
Regarding B2, the “HEKBlue TGFβ blocking IC50” value was > 33 nM in assay [1], 0.03 nM in assay [2] and 0.03 nM in assay [3].

B3: h4A11.v7.1 (antibody, human IgG1, kappa, N297G)
heavy: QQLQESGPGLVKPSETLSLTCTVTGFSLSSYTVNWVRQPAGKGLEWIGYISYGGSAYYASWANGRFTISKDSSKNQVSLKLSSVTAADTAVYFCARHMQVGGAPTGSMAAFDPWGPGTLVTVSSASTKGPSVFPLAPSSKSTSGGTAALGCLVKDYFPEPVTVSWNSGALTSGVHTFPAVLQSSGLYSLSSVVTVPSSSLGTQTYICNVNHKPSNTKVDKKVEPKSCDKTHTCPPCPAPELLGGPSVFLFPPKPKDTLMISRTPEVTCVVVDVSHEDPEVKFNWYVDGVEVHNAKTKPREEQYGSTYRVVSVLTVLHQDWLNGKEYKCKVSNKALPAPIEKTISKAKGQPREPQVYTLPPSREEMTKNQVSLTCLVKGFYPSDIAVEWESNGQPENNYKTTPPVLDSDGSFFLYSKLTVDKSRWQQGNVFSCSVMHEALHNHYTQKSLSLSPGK
light: EAVLTQSPGTLSLSPGERATLSCQSSQSVYNNNYLSWFQQKPGQPPRLLIYGASTLTSGVPDRFSGSGSGTDFTLTISRLEPEDFAVYYCAGGYSGSSDKYAFGGGTKVEIKRTVAAPSVFIFPPSDEQLKSGTASVVCLLNNFYPREAKVQWKVDNALQSGNSQESVTEQDSKDSTYSLSSTLTLSKADYEKHKVYACEVTHQGLSSPVTKSFNRGEC
As for B3, the “HEKBlue TGFβ blocking IC50” value is > 33 nM in assay [1], 0.09 nM in assay [2] and 0.03 nM in assay [3].

B4: h4A11.v7.2 (antibody, human IgG1, kappa, N297G)
heavy: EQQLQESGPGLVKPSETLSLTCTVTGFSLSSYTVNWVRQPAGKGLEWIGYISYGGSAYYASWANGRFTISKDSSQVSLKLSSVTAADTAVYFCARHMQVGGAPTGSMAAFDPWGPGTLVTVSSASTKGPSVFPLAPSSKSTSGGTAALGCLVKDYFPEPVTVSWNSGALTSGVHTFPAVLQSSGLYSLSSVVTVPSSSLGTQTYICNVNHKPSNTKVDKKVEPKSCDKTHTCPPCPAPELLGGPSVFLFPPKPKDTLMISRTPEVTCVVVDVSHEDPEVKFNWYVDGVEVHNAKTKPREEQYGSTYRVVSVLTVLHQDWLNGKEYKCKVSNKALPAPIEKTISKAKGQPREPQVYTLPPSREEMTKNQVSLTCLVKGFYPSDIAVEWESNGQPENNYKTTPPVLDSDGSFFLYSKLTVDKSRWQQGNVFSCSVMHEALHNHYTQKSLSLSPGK
light: EAVLTQSPGTLSLSPGERATLSCQSSQSVYNNNYLSWFQQKPGQPPRLLIYGASTLTSGVPDRFSGSGSGTDFTLTISRLEPEDFAVYYCAGGYSGSSDKYAFGGGTKVEIKRTVAAPSVFIFPPSDEQLKSGTASVVCLLNNFYPREAKVQWKVDNALQSGNSQESVTEQDSKDSTYSLSSTLTLSKADYEKHKVYACEVTHQGLSSPVTKSFNRGEC
For the molecule B4, the results for the “HEKBlue TGFβ blocking IC50” value in assay [1], in assay [2] and in assay [3] were > 33 nM, 0.03 nM and 0.01 nM, respectively.

B5: h4A11.v7.10 (antibody, human IgG1, kappa, N297G, V domains shown)
VH: EQQLQESGPGLVKPSETLSLTCTVTGFSLSSYTVNWVRQPAGKGLEWIGYISYGGSAYYASWANGRVTISKDSSKNQVSLKLSSVTAADTAVYFCARHMQVGGAPTGSMAAFDPWGPGTLVTVSS
VL: EAVLTQSPGTLSLSPGERATLSCQSSQSVYNNNYLSWFQQKPGQPPRLLIYGASTLTSGVPDRFSGSGSGTDFTLTISRLEPEDFAVYYCAGGYSGSSDKYAFGGGTKVEIKR
On to B5, for which the results for the “HEKBlue TGFβ blocking IC50” value in assay [1], in assay [2] and in assay [3] were > 200 nM, 0.02 nM and 0.02 nM, respectively. Moreover, the Kd in assay [4] was 0.0056 nM; in assay [5] it was 0.0068 nM.

B6: h4A11.v7.12 (antibody, human IgG1, kappa, N297G, V domains shown)
VH: EQQLQESGPGLVKPSETLSLTCTVTGFSLSSYTVNWVRQPAGKGLEWIGYISYGGSAYYASWANGRFTISKDTSKNQVSLKLSSVTAADTAVYFCARHMQVGGAPTGSMAAFDPWGPGTLVTVSS
VL: EAVLTQSPGTLSLSPGERATLSCQSSQSVYNNNYLSWFQQKPGQPPRLLIYGASTLTSGVPDRFSGSGSGTDFTLTISRLEPEDFAVYYCAGGYSGSSDKYAFGGGTKVEIKR
On to B6, for which the “HEKBlue TGFβ blocking IC50” value in assay [1] is > 200 nM; in assay [2] it was 0.01 nM; in assay [3], 0.03 nM. Besides, the values for the Kd in assay [4] and in assay [5] were 0.006 nM and 0.0065 nM, respectively.

B7: h4A11.v7.9 (antibody, human IgG1, kappa, N297G, V domains shown)
VH: EQQLQESGPGLVKPSETLSLTCTVTGFSLSSYTVNWIRQPAGKGLEWIGYISYGGSAYYASWANGRFTISKDSSKNQVSLKLSSVTAADTAVYFCARHMQVGGAPTGSMAAFDPWGPGTLVTVSS
VL: EAVLTQSPGTLSLSPGERATLSCQSSQSVYNNNYLSWFQQKPGQPPRLLIYGASTLTSGVPDRFSGSGSGTDFTLTISRLEPEDFAVYYCAGGYSGSSDKYAFGGGTKVEIKR
Take B7: the results for the “HEKBlue TGFβ blocking IC50” value in assay [1], in assay [2] and in assay [3] were > 200 nM, 0.08 nM and 0.02 nM, respectively. Besides, the figures for the Kd in assay [4] and in assay [5] were 0.0049 nM and 0.0057 nM, respectively.

B8: h4A11.v7.14 (antibody, human IgG1, kappa, N297G, V domains shown)
VH: EQQLQESGPGLVKPSETLSLTCTVTGFSLSSYTVNWVRQPAGKGLEWIGYISYGGSAYYASWANGRFTISKDSSKNQVSLKLSSVTAADTAVYYCARHMQVGGAPTGSMAAFDPWGPGTLVTVSS
VL: EAVLTQSPGTLSLSPGERATLSCQSSQSVYNNNYLSWFQQKPGQPPRLLIYGASTLTSGVPDRFSGSGSGTDFTLTISRLEPEDFAVYYCAGGYSGSSDKYAFGGGTKVEIKR
In the case of B8, the “HEKBlue TGFβ blocking IC50” value in assay [1] was > 200 nM; in assay [2], 0.35 nM; in assay [3], 0.04 nM. For the same molecule, the values for the Kd in assay [4] and in assay [5] were 0.0049 nM and 0.0055 nM, respectively. For the same molecule, the “fold loss of blocking against h4A11.v7” value in assay [6] amounted to 4 fold.

B9: h4A11.v7.15 (antibody, human IgG1, kappa, N297G)
heavy: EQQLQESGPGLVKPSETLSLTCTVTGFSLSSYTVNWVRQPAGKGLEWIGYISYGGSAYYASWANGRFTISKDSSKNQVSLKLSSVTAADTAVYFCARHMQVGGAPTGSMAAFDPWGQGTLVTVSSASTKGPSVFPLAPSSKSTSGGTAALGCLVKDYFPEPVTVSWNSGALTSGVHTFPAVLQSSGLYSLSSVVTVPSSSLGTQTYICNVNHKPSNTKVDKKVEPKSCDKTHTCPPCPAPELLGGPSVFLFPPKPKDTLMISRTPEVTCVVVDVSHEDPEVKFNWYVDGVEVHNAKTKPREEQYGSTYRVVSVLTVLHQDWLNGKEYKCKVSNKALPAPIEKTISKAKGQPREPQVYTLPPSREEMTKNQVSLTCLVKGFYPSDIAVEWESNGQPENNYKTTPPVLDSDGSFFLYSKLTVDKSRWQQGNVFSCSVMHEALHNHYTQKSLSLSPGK
light: EAVLTQSPGTLSLSPGERATLSCQSSQSVYNNNYLSWFQQKPGQPPRLLIYGASTLTSGVPDRFSGSGSGTDFTLTISRLEPEDFAVYYCAGGYSGSSDKYAFGGGTKVEIKRTVAAPSVFIFPPSDEQLKSGTASVVCLLNNFYPREAKVQWKVDNALQSGNSQESVTEQDSKDSTYSLSSTLTLSKADYEKHKVYACEVTHQGLSSPVTKSFNRGEC
For the molecule B9, the results for the “HEKBlue TGFβ blocking IC50” value in assay [1], in assay [2] and in assay [3] were > 200 nM, 0.09 nM and 0.02 nM, respectively. For the same molecule, the Kd in assay [4] was 0.0047 nM; in assay [5] it was 0.0048 nM.

B10: h4A11.v7.4 (antibody, V domains shown)
VH: EQQLQESGPGLVKPSETLSLTCTVTGFSLSSYTVNWVRQPAGKGLEWIGYISYGGSAYYASWANGRFTISKDSSKNQVSLKLSSVTAADTAVYFCARHMQVGGAPTGSMAAFDPWGPGTLVTVSS
VL: EIVLTQSPGTLSLSPGERATLSCQSSQSVYNNNYLSWFQQKPGQPPRLLIYGASTLTSGVPDRFSGSGSGTDFTLTISRLEPEDFAVYYCAGGYSGSSDKYAFGGGTKVEIK
Take B10: the “HEKBlue TGFβ blocking IC50” value is > 200 nM in assay [1], 0.01 nM in assay [2] and 0.05 nM in assay [3]. Also, the Kd in assay [4] was determined as 0.0064 nM; in assay [5], 0.0043 nM.

B11: h4A11.v7.6 (antibody, V domains shown)
VH: EQQLQESGPGLVKPSETLSLTCTVTGFSLSSYTVNWVRQPAGKGLEWIGYISYGGSAYYASWANGRFTISKDSSKNQVSLKLSSVTAADTAVYFCARHMQVGGAPTGSMAAFDPWGPGTLVTVSS
VL: EAVLTQSPGTLSLSPGERATLSCQSSQSVYNNNYLSWFQQKPGQAPRLLIYGASTLTSGVPDRFSGSGSGTDFTLTISRLEPEDFAVYYCAGGYSGSSDKYAFGGGTKVEIK
Consider B11, for which the “HEKBlue TGFβ blocking IC50” value in assay [1] is > 200 nM; in assay [2], 0.01 nM; in assay [3] it was 0.01 nM. Besides, the Kd in assay [4] was 0.0058 nM; in assay [5], 0.0065 nM.

B12: h4A11.v7.7 (antibody, V domains shown)
VH: EQQLQESGPGLVKPSETLSLTCTVTGFSLSSYTVNWVRQPAGKGLEWIGYISYGGSAYYASWANGRFTISKDSSKNQVSLKLSSVTAADTAVYFCARHMQVGGAPTGSMAAFDPWGPGTLVTVSS
VL: EAVLTQSPGTLSLSPGERATLSCQSSQSVYNNNYLSWFQQKPGQPPRLLIYGASTLTSGIPDRFSGSGSGTDFTLTISRLEPEDFAVYYCAGGYSGSSDKYAFGGGTKVEIK
In the case of B12, the “HEKBlue TGFβ blocking IC50” value in assay [1] is > 200 nM; in assay [2] it was 0.04 nM; in assay [3], 0.04 nM. Besides, the Kd came to 0.0063 nM in assay [4] and 0.0061 nM in assay [5].
